One substance from US20050282216A1 can be followed below.

Assay [1] concerns the target human IL-13Rβ (human) (UniProt Q14627). Nature of the assay: Scatchard analysis of saturation binding of 125I-labelled IL-13 on Caki-1 cells.
The target is the same in assay [2]. Nature of the assay: Scatchard analysis of saturation binding on COS-7 cells transfected with IL-13Rβ cDNA.
For assay [3], the target named is hIL-13Rα and hIL-4R coexpressed on cells (reconstituted high-affinity receptor) (human) (UniProt P24394). In words: Scatchard analysis on CHO-hIL4R cells transfected with hIL-13Rα cDNA, high-affinity site.
Assay [4] deals with human IL-13Rα (human) (UniProt P78552). Nature of the assay: Scatchard analysis on CHO-hIL4R cells transfected with hIL-13Rα cDNA, low-affinity site (nonassociated IL-13Rα chains).
For assay [5] the target is unchanged. In words: Scatchard analysis of saturation binding on CHO cells transfected with IL-13Rα cDNA.
For assay [6] the target is unchanged. Nature of the assay: radioligand binding on CHO cells; the basis of this value is not explained.

Sequence of UniProt P78552 (P78552 22-427 limits assumed, form in doubt): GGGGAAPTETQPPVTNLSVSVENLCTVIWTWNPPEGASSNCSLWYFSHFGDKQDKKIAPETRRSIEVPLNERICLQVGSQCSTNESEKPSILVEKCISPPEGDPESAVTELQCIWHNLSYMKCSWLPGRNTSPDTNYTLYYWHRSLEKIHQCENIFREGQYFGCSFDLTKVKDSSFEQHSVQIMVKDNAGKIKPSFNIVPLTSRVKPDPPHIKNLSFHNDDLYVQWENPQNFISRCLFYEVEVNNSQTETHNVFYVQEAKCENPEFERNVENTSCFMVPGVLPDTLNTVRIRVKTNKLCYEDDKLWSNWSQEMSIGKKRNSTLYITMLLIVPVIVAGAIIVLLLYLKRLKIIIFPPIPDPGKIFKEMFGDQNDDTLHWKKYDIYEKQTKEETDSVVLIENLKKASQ
Sequence of UniProt Q14627 (Q14627 27-380 limits assumed, form in doubt): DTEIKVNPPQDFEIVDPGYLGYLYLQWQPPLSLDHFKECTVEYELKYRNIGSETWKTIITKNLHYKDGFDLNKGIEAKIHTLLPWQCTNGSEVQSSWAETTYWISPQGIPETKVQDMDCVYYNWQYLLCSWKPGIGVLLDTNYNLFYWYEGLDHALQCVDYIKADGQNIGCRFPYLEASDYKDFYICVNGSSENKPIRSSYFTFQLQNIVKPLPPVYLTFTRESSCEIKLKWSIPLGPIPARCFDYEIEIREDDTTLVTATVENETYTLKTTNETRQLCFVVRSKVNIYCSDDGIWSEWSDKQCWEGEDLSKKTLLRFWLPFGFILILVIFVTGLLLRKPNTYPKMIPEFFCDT

In general, Kd refers to a measure of binding affinity in units of concentration. A low value points to higher affinity. “[125I][Phe43]-IL-13-GlyTyrGlyTyr (from UniProt P35225 35-146) (ligand)”: the Kd with human IL-13Rβ (human) [1] was found to be 0.446 nM; in the assay with human IL-13Rβ (human) [2], 0.25 nM; in assay [3], 0.023 nM; with human IL-13Rα (human) [4], 4.2 nM; with human IL-13Rα (human) [5] it was 4.5 nM; in the assay with human IL-13Rα (human) [6], 7.5 nM.
